# Assay results published in paper PMC2715080 (The Journal of Experimental Medicine, 2009).
# Like-named read-outs stand apart in the source and are kept apart here.
# B1: NKp30-hFc (soluble recombinant NKp30 fused to mutated human IgG1) (Fc fusion, UniProt O14931 19-135, looked up)
# chain: LWVSQPPEIRTLEGSSAFLPCSFNASQGRLAIGSVTWFRDEVVPGKEVRNGTPEFRGRLAPLASSRFLHDHQAELHIRDVRGHDASIYVCRVEVLGLGVGTGNGTRLVVEKEHPQLG
# How the values were obtained:
# [1] = target: T1, B7-H6-Fc (extracellular domain of B7-H6, aa 1-267, fused to effector-negative mouse IgG2a Fc) (human, UniProt Q68D85 25-267); assay: SPR
# T1 sequence (looked up): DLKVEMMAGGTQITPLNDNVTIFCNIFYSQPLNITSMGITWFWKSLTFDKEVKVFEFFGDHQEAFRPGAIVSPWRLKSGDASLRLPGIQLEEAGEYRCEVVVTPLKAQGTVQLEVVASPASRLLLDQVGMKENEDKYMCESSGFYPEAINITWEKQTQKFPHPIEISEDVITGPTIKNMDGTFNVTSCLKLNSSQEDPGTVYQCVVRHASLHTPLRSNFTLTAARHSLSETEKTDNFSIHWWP
# [2] = target: T1, B7-H6-Fc (extracellular domain of …); assay: SPR; remark: listed apart in the source
binder,measurement,setting,value
B1,binding result,[1],binds
same,binding result,[2],binds
